Target: T1, CRP-His6 (cAMP receptor protein) (Vibrio cholerae C6706) (UniProt O34015)
T1 sequence: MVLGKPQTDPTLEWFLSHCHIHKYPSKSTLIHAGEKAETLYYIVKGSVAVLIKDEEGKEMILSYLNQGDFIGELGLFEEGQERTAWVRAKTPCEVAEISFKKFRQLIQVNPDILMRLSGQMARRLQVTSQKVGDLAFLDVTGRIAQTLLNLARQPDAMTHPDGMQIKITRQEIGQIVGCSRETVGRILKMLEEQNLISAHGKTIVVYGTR
Assay: EMSA
Conditions: 10 mM Tris pH 7.5, 1 mM EDTA, 100 mM KCl, 0.1 mM DTT, 5% glycerol, 0.01 mg/ml BSA; CRP 11 ng/ul, promoter DNA 2.5 ng/ul, 75 ng NS DNA; 1 h at room temperature …

Sequence: CAGTGGATTAGCGTATGGACACGGCTACGTTTCCGCAGTGGAAAACGGTGTCGCCGAAGGACGTGTCACCTTGTGTAAATTTGCCGCTAACGGCACTGGAAAAAAAAACACTCACTGTGGCGCGATTCAATAC (double strand) [non-specific control 133 bp fragment (NS)]
- binding: no binding

Source: paper PMC4545359
